{
  "source": "paper PMC8876058",
  "about": "(Viruses, 2022)",
  "key": {"[1]": {"biological_target": "T1, CyPet-PIAS1 (SUMOylation E3 ligase PIAS1 fused to the FRET donor CyPet) (human, UniProt O75925 1-651)", "T1 construct": "also called SUMO E3", "T1 sequence (O75925 whole entry, the tested form may be a part)": "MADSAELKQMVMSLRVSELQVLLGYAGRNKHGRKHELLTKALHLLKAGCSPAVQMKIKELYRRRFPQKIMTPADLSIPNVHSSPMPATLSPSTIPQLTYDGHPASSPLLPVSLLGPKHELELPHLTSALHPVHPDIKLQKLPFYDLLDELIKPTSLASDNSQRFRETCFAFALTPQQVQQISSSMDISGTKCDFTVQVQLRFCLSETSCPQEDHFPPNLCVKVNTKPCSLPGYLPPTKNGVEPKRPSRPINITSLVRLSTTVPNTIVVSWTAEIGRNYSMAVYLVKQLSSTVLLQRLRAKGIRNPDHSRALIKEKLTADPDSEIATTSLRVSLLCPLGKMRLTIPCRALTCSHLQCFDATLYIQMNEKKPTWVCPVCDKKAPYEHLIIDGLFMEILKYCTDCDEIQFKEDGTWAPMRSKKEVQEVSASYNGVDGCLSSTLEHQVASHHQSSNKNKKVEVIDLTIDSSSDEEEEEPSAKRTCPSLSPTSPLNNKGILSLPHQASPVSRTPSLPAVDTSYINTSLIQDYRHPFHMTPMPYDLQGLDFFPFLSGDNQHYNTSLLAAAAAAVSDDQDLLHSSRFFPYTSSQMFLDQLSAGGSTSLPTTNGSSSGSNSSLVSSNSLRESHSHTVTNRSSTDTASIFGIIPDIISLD", "assay": "FRET or BRET", "settings": "both partners purified"}, "[2]": {"biological_target": "T2, CyPet-Ubc9 (SUMOylation E2 conjugating enzyme Ubc9 fused to the FRET donor CyPet) (human, UniProt P63279 1-158)", "T2 construct": "also called SUMO E2", "T2 sequence (P63279 whole entry, the tested form may be a part)": "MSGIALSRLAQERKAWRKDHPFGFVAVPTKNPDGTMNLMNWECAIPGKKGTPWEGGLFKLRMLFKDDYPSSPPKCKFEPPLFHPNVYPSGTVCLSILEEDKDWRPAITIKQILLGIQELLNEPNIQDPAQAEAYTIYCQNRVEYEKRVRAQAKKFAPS", "assay": "FRET or BRET", "settings": "both partners purified"}},
  "data": [
    {"binder": "YPet-Linker3-M1 (M1 protein of influenza B virus fused to the FRET acceptor YPet) (natural protein) MSLFGDTIAYLLSLTEDGEGKAELAEKLHCWFGGKEFDLDSALEWIKNKRCLTDIQKALIGASICFLKPKDQERKRRFITEPLSGMGTTATKKKGLILAERKMRRCVSFHEAFEIAEGHESSALLYCLMVMYLNPGNYSMQVKLGTLCALCEKQASHSHRAHSRAARSSVPGVRREMQMVSAMNTAKTMNGMGKGEDVQKLAEELQSNIGVLRSLGASQKNGEGIAKDVMEVLKQSSMGNSALVKKYL", "values": [
      {"measurement": "Kd", "setting": "[1]", "value": 220, "unit": "nM"},
      {"measurement": "Kd", "setting": "[2]", "value": 200, "unit": "nM"}
    ]}
  ]
}
